Measurements published in patent US20150190494A1 (OXFORD UNIVERSITY INNOVATION, published 2015).
Changes are numbered by the printed parent chain. In names and notes the source's numbering stands.

B1: WT V2 fHbp (other)
chain: CSSGGGGVAADIGAGLADALTAPLDHKDKSLQSLTLDQSVRKNEKLKLAAQGAEKTYGNGDSLNTGKLKNDKVSRFDFIRQIEVDGQLITLESGEFQIYKQDHSAVVALQIEKINNPDKIDSLINQRSFLVSGLGGEHTAFNQLPSGKAEYHGKAFSSDDPNGRLHYSIDFTKKQGYGRIEHLKTPEQNVELASAELKADEKSHAVILGDTRYGGEEKGTYHLALFGDRAQEIAGSATVKIREKVHEIGIAGKQ
notes: also called wild type V2 fHbp; V2WT
B2: M4B V2 fHbp (S35G/L114F/S137G/G138D) (other)
chain: B1 chain with S30G, L109F, S132G, G133D
B3: M6 V2 fHbp (S35G/D107S/V112T/L114F/S137G/G138D) (other)
chain: B1 chain with S30G, D102S, V107T, L109F, S132G, G133D
B4: M4A V2 fHbp (S35G/D107S/S137G/G138D) (other)
chain: B1 chain with S30G, D102S, S132G, G133D
B5: M5 V2 fHbp (S35G/D107S/L114F/S137G/G138D) (other)
chain: B1 chain with S30G, D102S, L109F, S132G, G133D

molecular target: T1, fH67 (UniProt P08603 321-443); test: SPR, fHbp immobilised on sensor chip, fH67 flowed over
T1 construct: domain: fH67; Flowed as analyte over immobilised fHbps in SPR; also called factor H
T1 sequence: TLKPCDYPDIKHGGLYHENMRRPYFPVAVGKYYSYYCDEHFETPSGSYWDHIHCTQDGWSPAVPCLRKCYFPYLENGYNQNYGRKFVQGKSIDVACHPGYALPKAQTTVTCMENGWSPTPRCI
Procedure: Kd values for fH₆₇ binding to the stable V2 fHbps were calculated from the sensogram (fH₆₇ binding to WT V2 fHbp shown in Appendix 3a) and compared to fH₆₇ binding to WT V2 fHbp (Table 3).

| Binder | Relative Kd |
| --- | --- |
| B1 | 1 fold against WT V2 fHbp |
| B2 | 3.92 fold against WT V2 fHbp |
| B3 | 19.3 fold against WT V2 fHbp |
| B4 | 2.39 fold against WT V2 fHbp |
| B5 | 3.84 fold against WT V2 fHbp |

molecular target: T1, fH67; test: SPR, fHbp immobilised on sensor chip, fH67 flowed over; mean ± SD of two determinations

| Binder | Kd |
| --- | --- |
| B1 | 3.18 nM |
| B2 | 12.5 nM |
| B3 | 61.3 nM |
| B4 | 7.6 nM |
| B5 | 12.2 nM |
